B1: ZNF511 (parent)
chain: YEHHYHTLHGNVCSFCKRAFPSGH
B2: ZER1 (parent)
chain: PILRLLPQGISPVSQHWATWALYN

Variants of: B1
Assay: protein stability index of a GFP-peptide fusion (GPS, HEK-293T) (PSI 1-6); higher = more stable
Conditions: c terminus: a fixed tail appended
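Further: lentivirally expressed fusions sorted by FACS into six bins by GFP to DsRed ratio, PSI derived from sequencing read proportions per bin multiplied by bin number.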

Variant | protein stability index
S14T | 2.23
S14L | 2.04
S14C | 2.39
S14P | 3.3
S14K | 2.3
S14A | 2.94
S14M | 2.3
S14D | 2.4
S14Y | 3.38
S14R | 2.87
S14I | 2.53
S14W | 2.53
S14H | 2.31
H6L | 1.72
H6G | 1.69
H6M | 1.6
H6S | 1.92
H6F | 1.48
H6K | 1.53
H6T | 1.94
H6Y | 1.83
H6R | 1.38
H6C | 2.6
H6N | 2.33
H6V | 2.51

Variant | protein stability index
H6W | 1.66
H6Q | 1.88
H6E | 2.4
G23H | 1.38
G23W | 1.62
G23S | 2.7
G23R | 1.98
G23K | 2.01
G23Q | 1.93
G23F | 1.83
G23M | 1.92
G23D | 2.31
G23N | 2.51
G23C | 2.33
H24I | 1.78
H24Y | 1.65
H24C | 2.07
H24W | 2.43
H24F | 2.5
H24E | 2.57
H24M | 2.17
H24T | 2.24
H24A | 2.13
H24G | 2.09
H24N | 2.39

Variant | protein stability index
H24L | 2.02
H24S | 2.46
H24K | 1.57
H24V | 2.25
H24R | 2.08
Y5L | 2.48
Y5A | 2.81
Y5D | 3.51
Y5P | 3.04
Y5M | 2.39
Y5I | 2.68
Y5N | 3.01
Y5H | 3.22
Y5R | 2.62
Y5K | 2.54
Y5E | 3.85
Y5W | 2.32
Y5V | 3.47
Y5S | 3.01
Y5F | 2.29
Y1Q | 3.62
Y1T | 2.75
Y1A | 3.02
Y1K | 3.02
Y1H | 2.81

Variant | protein stability index
Y1F | 2.72
Y1S | 3.29
Y1R | 2.22
Y1G | 2.99
Y1D | 3.67
Y1N | 3.38
Y1V | 2.51
Y1I | 2.89
Y1W | 2.07
Y1L | 2.75
R18S | 2.26
R18H | 2.29
R18Y | 2.24
R18T | 2.29
R18I | 1.6
R18V | 1.73
R18A | 2.06
R18F | 1.94
R18P | 2.87
R18G | 2.27
R18E | 2.14
R18C | 1.89
A19P | 1.89
A19W | 2.25
A19C | 2.19

Variant | protein stability index
A19V | 1.99
A19H | 2.85
A19T | 2.29
A19D | 2.42
A19E | 2.13
A19L | 2.36
A19K | 2.11
A19I | 1.85
A19R | 2.37
A19M | 2.29
A19Y | 2.25
H3P | 2.8
H3F | 2.06
H3M | 1.94
H3Y | 2.23
H3A | 1.97
H3K | 2.27
H3W | 2.12
H3R | 2.09
H3N | 2.52
H3L | 2.13
H3S | 2.6
H3D | 3.06
H3T | 2.91
H3C | 3.57

Variant | protein stability index
L8H | 2.92
L8V | 2.74
L8P | 2.43
L8M | 2.12
L8D | 2.57
L8A | 2.47
L8T | 2.67
L8K | 2.26
L8R | 2.4
L8E | 2.65
L8Q | 2.62
L8W | 2.3
L8N | 2.67
L8S | 2.23
F15E | 2.79
F15V | 2
F15H | 2.39
F15C | 3.02
F15K | 2.21
F15W | 2.96
F15T | 2.99
F15S | 2.39
F15D | 2.48
F15M | 2.54
F15I | 2.38

Variant | protein stability index
F15Q | 3.25
C16Y | 2.09
C16S | 1.71
C16I | 1.86
C16F | 1.99
C16Q | 2.26
C16L | 2.1
C16A | 2.05
C16M | 2.01
C16W | 1.62
C16D | 2.17
C16G | 2
C16V | 2.14
C16E | 2.5
C16T | 2.4
E2G | 2.9
E2P | 1.54
E2R | 1.8
E2C | 2.15
E2T | 3.14
E2M | 2.08
E2N | 1.37
E2D | 2.9
E2S | 3.32
E2A | 3.31

Variant | protein stability index
H4K | 2.03
H4I | 1.82
H4E | 2.7
H4S | 2.43
H4L | 2.07
H4V | 1.91
H4P | 2.38
H4T | 1.95
H4D | 2.17
H4F | 1.33
H4G | 2.05
H4M | 2.52
C13A | 2.18
C13Y | 1.78
C13K | 2.04
C13N | 2.67
C13G | 2.54
C13Q | 2.63
C13S | 2.22
C13V | 1.92
C13L | 1.5
C13D | 2.29
C13I | 2.6
C13E | 2.36
C13T | 1.97

Variant | protein stability index
C13W | 1.52
C13F | 1.5
C13P | 2.11
P21G | 2.31
P21R | 1.91
P21F | 2.13
P21T | 2.38
P21H | 2.32
P21W | 1.61
P21A | 2.6
P21Y | 1.77
P21D | 2.88
P21M | 2.57
P21I | 2.29
P21C | 3.6
P21L | 2.36
P21K | 1.9
F20L | 2.27
F20V | 2.58
F20D | 3.27
F20Q | 2.37
F20H | 3.37
F20N | 3.13
F20R | 2.12
F20P | 2.34

Variant | protein stability index
F20W | 2.42
F20T | 2.68
F20K | 2.64
F20G | 2.82
F20E | 2.4
G10H | 1.87
G10W | 2.29
G10Y | 2.46
G10N | 2.28
G10A | 2.23
G10Q | 1.78
G10R | 1.59
G10F | 1.78
G10T | 2.13
G10L | 1.95
G10K | 2.76
G10M | 2.01
V12Q | 2.66
V12F | 2.05
V12E | 3.67
V12K | 2
V12W | 2.14
V12D | 3.41
V12H | 2.4
V12A | 2.44

Variant | protein stability index
V12P | 2.31
V12R | 2.24
V12C | 2.02
V12G | 1.84
V12T | 2.44
S22V | 1.84
S22Y | 1.7
S22T | 2.27
S22L | 2.87
S22C | 2.69
S22N | 3.01
S22W | 1.47
S22K | 1.8
S22F | 2.15
S22P | 2.67
S22Q | 1.45
S22A | 2.08
S22H | 2.99
S22I | 2.24
S22R | 2.03
T7W | 1.75
T7Q | 1.9
T7S | 1.72
T7E | 2.07
T7A | 1.95

Variant | protein stability index
T7L | 2.28
T7I | 2.31
T7F | 2.06
T7N | 2.09
T7Y | 2.09
H9F | 1.68
H9M | 2.06
H9K | 2.77
H9Y | 2
H9R | 2.48
H9D | 1.97
H9C | 2.18
H9G | 2.24
H9Q | 2.19
H9A | 1.93
H9L | 1.5
H9N | 2.49
H9P | 2.72
N11Y | 1.99
N11G | 2.12
N11E | 2.22
N11H | 2.21
N11V | 1.87
N11R | 2.62
N11P | 2.6

Variant | protein stability index
N11Q | 2.2
N11L | 1.77
N11M | 2.68
N11I | 1.83
N11K | 2.31
N11W | 2.17
N11S | 1.95
K17E | 2.59
K17W | 1.3
K17R | 2.2
K17P | 1.78
K17H | 2.18
K17G | 2.61
K17Q | 2.41
K17Y | 1.77
K17F | 1.84
K17A | 2.23
K17C | 1.89
K17N | 2.18
K17V | 1.87

Variants of: B2
Assay: as above
Conditions: c terminus: a fixed tail appended

Variant | protein stability index
P1R | 2
P1T | 2.19
P1H | 2.39
P1K | 2.4
P1F | 3.24
P1A | 5.68
P1S | 2.07
I2K | 2.04
I2N | 1.5
I2E | 2.45
I2D | 2.52
I2C | 2.98
I2H | 1.17
I2A | 2.46

— the supplement of paper PMC10567573
